Experimental data published in paper PMC9133036 (Nature Communications, 2022).

Molecular target: T1, full-length wild-type human OX2R (pCDNA3, HEK293) (human) (UniProt O43614)
T1 sequence: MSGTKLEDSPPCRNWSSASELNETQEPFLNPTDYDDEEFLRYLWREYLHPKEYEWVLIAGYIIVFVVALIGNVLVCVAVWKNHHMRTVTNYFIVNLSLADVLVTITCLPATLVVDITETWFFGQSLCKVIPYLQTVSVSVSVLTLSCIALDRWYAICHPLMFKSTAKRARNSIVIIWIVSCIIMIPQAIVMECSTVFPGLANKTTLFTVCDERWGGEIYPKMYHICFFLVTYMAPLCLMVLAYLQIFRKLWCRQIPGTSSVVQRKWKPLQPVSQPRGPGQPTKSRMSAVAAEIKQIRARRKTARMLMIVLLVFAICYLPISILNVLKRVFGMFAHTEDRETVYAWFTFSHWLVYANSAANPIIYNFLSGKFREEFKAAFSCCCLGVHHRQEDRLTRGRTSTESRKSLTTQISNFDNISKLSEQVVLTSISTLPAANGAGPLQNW

Chain of orexin B (O43612 70-97): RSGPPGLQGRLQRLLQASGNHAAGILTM

Gq-mediated inositol phosphate (IP) accumulation in HEK293 cells transfected with OX2R and Gαq; EC50 of orexin B: 8.2 nM
Substance: orexin B (from UniProt O43612 70-97) (peptide)
